Assay results reported in patent publication US20240368250A1 (Ablynx, published 2024).
Changes are numbered by the printed parent chain.

B1: TP009 (Fc fusion)
chain 1: DVQLVESGGGLVQPGGSLRLSCAASGLTFSTNPMYWYRQAPGKQRELVASISSRGITNYADSVKGRFTISRDNSKNTVYLQMNSLRPEDTAVYYCRLASLSSGTVYWGQGTLVTVSSDKTHTCPPCPAPEAAGGPSVFLFPPKPKDTLMISRTPEVTCVVVDVSQEDPEVQFNWYVDGVEVHNAKTKPREEQFNSTYRVVSVLTVLHQDWLNGKEYKCKVSNKGLPSSIEKTISKAKGQPREPQVYTLPPCQEEMTKNQVSLWCLVKGFYPSDIAVEWESNGQPENNYKTTPPVLDSDGSFFLYSKLTVDKSRWQEGNVFSCSVMHEALHNHYTQKSLSLSLG
chain 2: DVQLVESGGGVVQPGGSLRLSCAASGFTFRSFGMSWVRQAPGKGPEWVSSISGSGSDTLYADSVKGRFTISRDNSKNTLYLQMNSLRPEDTALYYCTIGGSLSRSSQGTLVTVSSDKTHTCPPCPAPEAAGGPSVFLFPPKPKDTLMISRTPEVTCVVVDVSQEDPEVQFNWYVDGVEVHNAKTKPREEQFNSTYRVVSVLTVLHQDWLNGKEYKCKVSNKGLPSSIEKTISKAKGQPREPQVCTLPPSQEEMTKNQVSLSCAVKGFYPSDIAVEWESNGQPENNYKTTPPVLDSDGSFFLVSKLTVDKSRWQEGNVFSCSVMHEALHNHYTQKSLSLSLG
notes: IgG4 FALA Fc (knob-in-hole); irrelevant ISVD N-terminal on chain 1, ALB23002 N-terminal on chain 2
B2: TP003 (Fc fusion)
chain 1: B1 chain 1
chain 2: B1 chain 1 with Y246C, C251S, W263S, L265A, Y304V
notes: IgG4 FALA Fc (knob-in-hole) with two N-terminal non-targeting ISVDs; also called control ISVD-Fc construct
B3: TP006 (Fc fusion)
chain 1: DVQLVESGGGLVQPGGSLRLSCAASGLTFSTNPMYWYRQAPGKQRELVASISSRGITNYADSVKGRFTISRDNSKNTVYLQMNSLRPEDTAVYYCRLASLSSGTVYWGQGTLVTVSSDKTHTCPPCPAPEAAGGPSVFLFPPKPKDTLMISRTPEVTCVVVDVSQEDPEVQFNWYVDGVEVHNAKTKPREEQFNSTYRVVSVLTVLHQDWLNGKEYKCKVSNKGLPSSIEKTISKAKGQPREPQVYTLPPCQEEMTKNQVSLWCLVKGFYPSDIAVEWESNGQPENNYKTTPPVLDSDGSFFLYSKLTVDKSRWQEGNVFSCSVMHEALHNHYTQKSLSLSLGGGGGSGGGGSGGGGSGGGGSGGGGSGGGGSGGGGSEVQLVESGGGVVQPGGSLRLSCAASGFTFRSFGMSWVRQAPGKGPEWVSSISGSGSDTLYADSVKGRFTISRDNSKNTLYLQMNSLRPEDTALYYCTIGGSLSRSSQGTLVTVSS
chain 2: DKTHTCPPCPAPEAAGGPSVFLFPPKPKDTLMISRTPEVTCVVVDVSQEDPEVQFNWYVDGVEVHNAKTKPREEQFNSTYRVVSVLTVLHQDWLNGKEYKCKVSNKGLPSSIEKTISKAKGQPREPQVCTLPPSQEEMTKNQVSLSCAVKGFYPSDIAVEWESNGQPENNYKTTPPVLDSDGSFFLVSKLTVDKSRWQEGNVFSCSVMHEALHNHYTQKSLSLSLG
notes: IgG4 FALA Fc (knob-in-hole); irrelevant ISVD N-terminal and ALB23002 C-terminal (35GS) on chain 1; chain 2 is hinge-Fc only
B4: TP008 (Fc fusion)
chain 1: DVQLVESGGGLVQPGGSLRLSCAASGLTFSTNPMYWYRQAPGKQRELVASISSRGITNYADSVKGRFTISRDNSKNTVYLQMNSLRPEDTAVYYCRLASLSSGTVYWGQGTLVTVSSDKTHTCPPCPAPEAAGGPSVFLFPPKPKDTLMISRTPEVTCVVVDVSQEDPEVQFNWYVDGVEVHNAKTKPREEQFNSTYRVVSVLTVLHQDWLNGKEYKCKVSNKGLPSSIEKTISKAKGQPREPQVYTLPPCQEEMTKNQVSLWCLVKGFYPSDIAVEWESNGQPENNYKTTPPVLDSDGSFFLYSKLTVDKSRWQEGNVFSCSVMHEALHNHYTQKSLSLSLGGGGGSGGGGSGGGGSGGGGSGGGGSGGGGSGGGGSEVQLVESGGGLVQPGGSLRLSCAASGLTFSTNPMYWYRQAPGKQRELVASISSRGITNYADSVKGRFTISRDNSKNTVYLQMNSLRPEDTAVYYCRLASLSSGTVYWGQGTLVTVSS
chain 2: B3 chain 2
notes: IgG4 FALA Fc knob-in-hole

Key:
[1] = target: T1, Human FcRn (biotinylated human FcRn) (human, UniProt P61769 21-119); assay: SPR Biacore 8K+, biotinylated hFcRn on SA chip (~600 RU), pH 6.0, bivalent analyte fit
T1 construct: Biotinylated human FcRn captured on a Series S Sensor Chip SA; also called human neonatal Fc receptor; hFcRn

[2] = target: T1, Human FcRn (biotinylated human FcRn); assay: SPR Biacore 8K+, biotinylated hFcRn on SA chip (~1000-2000 RU), pH 6.0, no HSA, bivalent analyte fit (ka1)
[3] = target: T1, Human FcRn (biotinylated human FcRn); assay: SPR Biacore 8K+, biotinylated hFcRn on SA chip (~600 RU), pH 6.0, bivalent analyte fit (ka1)
[4] = target: T1, Human FcRn (biotinylated human FcRn); assay: SPR Biacore 8K+, biotinylated hFcRn on SA chip (~600 RU), pH 6.0, bivalent analyte fit (KD1)
[5] = target: T2, Mouse serum albumin (MSA; Albumin Bioscience Cat No. 2601) (mouse, UniProt P07724 25-608); assay: SPR Biacore 8K+, MSA on CM5 chip, pH 6.0, 1:1 fit
[6] = target: T1, Human FcRn (biotinylated human FcRn); assay: SPR Biacore 8K+, biotinylated hFcRn on SA chip (~1000-2000 RU), pH 6.0, with 30 uM HSA, bivalent analyte fit (ka1)
[7] = target: T1, Human FcRn (biotinylated human FcRn); assay: SPR Biacore 8K+, biotinylated hFcRn on SA chip (~1000-2000 RU), pH 6.0, no HSA, bivalent analyte fit (KD1)
[8] = target: T1, Human FcRn (biotinylated human FcRn); assay: SPR Biacore 8K+, biotinylated hFcRn on SA chip (~1000-2000 RU), pH 6.0, no HSA, bivalent analyte fit
[9] = target: T1, Human FcRn (biotinylated human FcRn); assay: SPR Biacore 8K+, biotinylated hFcRn on SA chip (~1000-2000 RU), pH 6.0, with 30 uM HSA, bivalent analyte fit
[10] = target: T1, Human FcRn (biotinylated human FcRn); assay: SPR Biacore 8K+, biotinylated hFcRn on SA chip (~1000-2000 RU), pH 6.0, with 30 uM HSA, bivalent analyte fit (KD1)
[11] = target: T2, Mouse serum albumin (MSA; Albumin …); assay: SPR Biacore 8K+, MSA on CM5 chip, pH 7.4, 1:1 fit
[12] = target: T1, Human FcRn (biotinylated human FcRn); assay: SPR Biacore 8K+, biotinylated hFcRn on SA chip (~1000-2000 RU), pH 6.0, no HSA, 1:1 fit
[13] = target: T3, Human serum albumin (HSA; Sigma-Aldrich Cat No. A8763) (human, UniProt P02768 25-609); assay: SPR Biacore 8K+, HSA on CM5 chip, pH 7.4, 1:1 fit
[14] = target: T1, Human FcRn (biotinylated human FcRn); assay: SPR Biacore 8K+, biotinylated hFcRn on SA chip (~600 RU), pH 6.0, bivalent analyte fit (kd1)
[15] = target: T1, Human FcRn (biotinylated human FcRn); assay: SPR Biacore 8K+, biotinylated hFcRn on SA chip (~1000-2000 RU), pH 6.0, no HSA, bivalent analyte fit (kd1)
[16] = target: T3, Human serum albumin (HSA; Sigma-Aldrich …); assay: SPR Biacore 8K+, HSA on CM5 chip, pH 6.0, 1:1 fit
[17] = target: T1, Human FcRn (biotinylated human FcRn); assay: SPR Biacore 8K+, biotinylated hFcRn on SA chip (~1000-2000 RU), pH 6.0, with 30 uM HSA, bivalent analyte fit (kd1)
[18] = target: T1, Human FcRn (biotinylated human FcRn); assay: SPR Biacore 8K+, biotinylated hFcRn on SA chip (~1000-2000 RU), pH 6.0, with 30 uM HSA, bivalent analyte fit (kd1); remark: no good fit possible

Binder	ka2 [1]	kd2 [1] [s⁻¹]	kon [2] [M⁻¹ s⁻¹]	kon [3] [M⁻¹ s⁻¹]	Kd [4] [µM]	Kd [5] [µM]	koff [5] [s⁻¹]	kon [6] [M⁻¹ s⁻¹]	Kd [7] [µM]	ka2 [8]	kd2 [8] [s⁻¹]	ka2 [9]	kd2 [9] [s⁻¹]	Kd [10] [µM]	Kd [12] [µM]	koff [12] [s⁻¹]	kon [12] [M⁻¹ s⁻¹]	koff [14] [s⁻¹]	koff [15] [s⁻¹]	koff [17] [s⁻¹]	also measured
B1	0.917 1/RUs	10.2	240000	22800	0.0151	0.013	0.002	75000	0.15	0.0013 1/RUs	0.018	0.0074 1/RUs	0.095	0.023	0.003	0.0067	2.3e+06	0.000344	0.037	0.0017	kon [5]: 160000 M⁻¹ s⁻¹; Kd [11]: 0.021 µM; koff [11]: 0.0026 s⁻¹; kon [11]: 130000 M⁻¹ s⁻¹; Kd [13]: 0.0067 µM; koff [13]: 0.0005 s⁻¹; kon [13]: 75000 M⁻¹ s⁻¹; Kd [16]: 0.0027 µM; koff [16]: 0.00037 s⁻¹; kon [16]: 140000 M⁻¹ s⁻¹
B2	0.011 1/RUs	0.0329	250000	77000	0.00309	–	–	470000	0.039	0.15 1/RUs	2.4	100 1/RUs	1900	0.077	0.0036	0.0017	460000	0.000238	0.0098	0.036	–
B3	10.7 1/RUs	71.9	140000	9440	0.426	0.084	0.0026	–	0.29	0.00013 1/RUs	0.002	–	–	–	0.018	0.083	4.5e+06	0.00402	0.042	–	kon [5]: 31000 M⁻¹ s⁻¹; Kd [11]: 0.12 µM; koff [11]: 0.0028 s⁻¹; kon [11]: 23000 M⁻¹ s⁻¹; Kd [13]: 0.067 µM; koff [13]: 0.0017 s⁻¹; kon [13]: 26000 M⁻¹ s⁻¹; Kd [16]: 0.032 µM; koff [16]: 0.0017 s⁻¹; kon [16]: 54000 M⁻¹ s⁻¹; koff [18]: 0.0016 s⁻¹
B4	28.7 1/RUs	51.1	270000	3.25e+06	0.0061	–	–	260000	0.075	6.2e-05 1/RUs	0.0021	7.1 1/RUs	120	0.19	0.0043	0.0086	2e+06	0.0198	0.02	0.047	–
